Assay results: publication doi:10.1101/2020.10.22.351346
pIC50, pKd: −log10 of the molar value. Blank lines part the entries; values can stand above or below the substance they belong to.

Legend:
[1] = biological target: microtubules of pig brain tubulin, taxol-stabilised, surface-immobilised (pig) (UniProt P02550)
[2] = biological target: microtubules of pig brain tubulin, taxol-stabilised, surface-immobilised (pig) (UniProt P02550); assay: TIRF fluorescence imaging of labelled MAP on surface-immobilised MTs

Sequence of full-length human MAP7 (Q14244 whole entry): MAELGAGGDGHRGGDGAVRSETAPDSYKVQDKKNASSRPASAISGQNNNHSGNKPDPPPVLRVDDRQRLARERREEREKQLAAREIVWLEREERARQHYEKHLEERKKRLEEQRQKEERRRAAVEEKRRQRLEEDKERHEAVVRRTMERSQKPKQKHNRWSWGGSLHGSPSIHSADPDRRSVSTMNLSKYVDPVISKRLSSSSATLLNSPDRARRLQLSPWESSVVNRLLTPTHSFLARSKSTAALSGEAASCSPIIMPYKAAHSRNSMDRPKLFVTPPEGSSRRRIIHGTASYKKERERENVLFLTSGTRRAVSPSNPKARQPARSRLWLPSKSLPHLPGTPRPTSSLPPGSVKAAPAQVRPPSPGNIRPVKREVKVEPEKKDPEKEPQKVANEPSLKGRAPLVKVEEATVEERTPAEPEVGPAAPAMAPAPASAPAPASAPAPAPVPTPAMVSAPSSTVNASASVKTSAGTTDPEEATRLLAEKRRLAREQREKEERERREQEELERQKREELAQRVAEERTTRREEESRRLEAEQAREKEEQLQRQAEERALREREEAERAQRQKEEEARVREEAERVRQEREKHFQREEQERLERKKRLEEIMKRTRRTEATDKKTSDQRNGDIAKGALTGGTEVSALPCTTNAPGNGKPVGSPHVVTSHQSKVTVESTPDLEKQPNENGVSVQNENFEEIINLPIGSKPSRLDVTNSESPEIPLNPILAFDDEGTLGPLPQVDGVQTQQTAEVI
Sequence of Tau-MTBD (amino acids 242-367) (P10636 559-684): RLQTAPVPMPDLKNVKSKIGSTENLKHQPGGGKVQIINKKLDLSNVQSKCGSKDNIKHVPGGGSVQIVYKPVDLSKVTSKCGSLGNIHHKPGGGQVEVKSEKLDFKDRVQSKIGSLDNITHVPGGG
Sequence of MAP7-N (amino acids 1-316) (Q14244 1-316): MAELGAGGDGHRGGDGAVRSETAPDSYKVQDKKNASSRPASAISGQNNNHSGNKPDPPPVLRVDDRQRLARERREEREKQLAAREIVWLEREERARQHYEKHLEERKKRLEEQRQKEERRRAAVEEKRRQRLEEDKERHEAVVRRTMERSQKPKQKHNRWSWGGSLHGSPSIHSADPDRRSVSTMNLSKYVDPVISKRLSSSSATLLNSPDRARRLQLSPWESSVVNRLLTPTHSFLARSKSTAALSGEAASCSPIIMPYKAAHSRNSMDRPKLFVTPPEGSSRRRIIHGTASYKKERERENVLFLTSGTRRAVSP

IC50 of the run frequency of K560 on MTs against the concentration of MAP7-N [1]: 0.0176 µM
Substance: MAP7-N (amino acids 1-316) (from UniProt Q14244-1 1-316) (domain or fragment)

Substance: Tau-MTBD (amino acids 242-367) (from UniProt P10636-8 242-367) (domain or fragment)
fold lower affinity than FL tau [2]: 100 fold

pIC50 [2]: 6.57
pKd [2]: 6.95
Substance: full-length human MAP7 (from UniProt Q14244-1 1-749) (natural protein)
